Assay results reported in patent US20140271457A1 (AbbVie / Abbott, published 2014).

What was measured:
[1] = target: T1, Recombinant Human TNF-α/TNFSF1A (human, UniProt P01375 77-233); assay: SPR (Biacore)
T1 construct: also called huTNFα
T1 sequence (P01375 77-233 limits assumed): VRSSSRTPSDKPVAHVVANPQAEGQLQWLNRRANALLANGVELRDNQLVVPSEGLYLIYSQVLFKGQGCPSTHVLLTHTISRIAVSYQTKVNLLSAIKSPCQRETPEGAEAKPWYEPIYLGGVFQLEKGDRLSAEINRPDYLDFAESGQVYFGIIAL

Recombinant Human IL-13 [2] = target: Recombinant Human IL-13 (human, UniProt P35225 35-146, limits assumed); assay: cell-based or functional assay
Target sequence in this assay (P35225 35-146 limits assumed): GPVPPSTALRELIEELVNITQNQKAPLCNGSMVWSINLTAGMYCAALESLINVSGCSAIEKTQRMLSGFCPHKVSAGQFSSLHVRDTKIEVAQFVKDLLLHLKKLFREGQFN

[3] = target: T2, Recombinant Human TNF-α/TNFSF1A (human, UniProt P01375 77-233); assay: Biacore SPR
T2 construct: vendor reagent is named for Biacore; the neutralization assay says only huTNFα; also called huTNFα
Method in brief: (§1)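 Kinetic constants come from global 1:1 model fitting (Rmax local) at 0.8–100 nM antigen. Flow was 50 μl/min with 5 min association and 10 min dissociation. Capture used goat anti-mouse IgG Fcγ on a CM5 chip in HBS-EP+ at 25 °C.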
T2 sequence (P01375 77-233 limits assumed): as the sequence (P01375 77-233 limits assumed) above

Recombinant Human IL-13 [4] = target: Recombinant Human IL-13 (human, UniProt P35225 35-146, limits assumed); assay: Biacore SPR
Method in brief: as §1
Target sequence in this assay (P35225 35-146 limits assumed): as the sequence (P35225 35-146 limits assumed) above

[5] = target: T2, Recombinant Human TNF-α/TNFSF1A; assay: cell-based or functional assay

binding result [1]	IL-13 Neutralization Assay IC50 (Recombinant Human IL-13 [2]) [nM]	Kd [3] [nM]	koff [3] [s⁻¹]	kon [3] [M⁻¹ s⁻¹]	Kd (Recombinant Human IL-13 [4]) [nM]	koff (Recombinant Human IL-13 [4]) [s⁻¹]	kon (Recombinant Human IL-13 [4]) [M⁻¹ s⁻¹]	C-Terminal VD huTNFα Neutralization Assay IC50 [5] [nM]	Binder
binds	0.081								DVD3168 (bispecific antibody, human IgG1, kappa, DVD-Ig: outer AB399 (IL-13), inner AB441 (TNF); linkers GS-H10/GS-L10; also called DVD3168H; DVD3168L) heavy: not shown light: DIQMTQSPSSLSASVGDRVTITCRASQGIRNYLNWYQQKPGKAPKLLIYYASNLEVGVPSRFSGSGSGTDYTLTISSLQPEDFATYYCQQDNRFPYTFGGGTKVEIKRGGSGGGGSGDIQMTQSPSSLSASVGDRVTITCRASQDISQYLNWYQQKPGKAPKLLIYYTSRLQSGVPSRFSGSGSGTDFTLTISSLQPEDFATYFCQQGNTWPPTFGQGTKLEIKRTVAAPSVFIFPPSDEQLKSGTASVVCLLNNFYPREAKVQWKVDNALQSGNSQESVTEQDSKDSTYSLSSTLTLSKADYEKHKVYACEVTHQGLSSPVTKSFNRGEC
		< 0.0015	< 1e-06	650000	0.01	2e-05	1.9e+06	0.169	DVD3169 (bispecific antibody, IgG1, DVD-Ig; wt hIgG1 + kappa constants) VH: EVQLVQSGAEVKKPGASVKVSCKASGYTFTSYWMHWVRQAPGQGLEWIGNINPKGGSNIYNEKFQGRVTMTRDTSISTAYMELSRLRSDDTAVYYCARLDYFGDSFDLWGQGTTVTVSSASTKGPEVQLVQSGAEVKKPGASVKVSCKASGYTFANYGIIWVRQAPGQGLEWMGWINTYTGKPTYAQKFQGRVTMTTDTSTSTAYMELSSLRSEDTAVYYCARKLFTTMDVTDNAMDYWGQGTTVTVSS VL: DIQMTQSPSSLSASVGDRVTITCRASQGIRNYLNWYQQKPGKAPKLLIYYASNLEVGVPSRFSGSGSGTDYTLTISSLQPEDFATYYCQQDNRFPYTFGGGTKVEIKRTVAAPDIQMTQSPSSLSASVGDRVTITCRASQDISQYLNWYQQKPGKAPKLLIYYTSRLQSGVPSRFSGSGSGTDFTLTISSLQPEDFATYFCQQGNTWPPTFGQGTKLEIKR
binds	0.089								DVD3169 (bispecific antibody, human IgG1, kappa, DVD-Ig: outer AB399 (IL-13), inner AB441 (TNF); linkers HG-short/LK-short; also called DVD3169H; DVD3169L) heavy: not shown light: DIQMTQSPSSLSASVGDRVTITCRASQGIRNYLNWYQQKPGKAPKLLIYYASNLEVGVPSRFSGSGSGTDYTLTISSLQPEDFATYYCQQDNRFPYTFGGGTKVEIKRTVAAPDIQMTQSPSSLSASVGDRVTITCRASQDISQYLNWYQQKPGKAPKLLIYYTSRLQSGVPSRFSGSGSGTDFTLTISSLQPEDFATYFCQQGNTWPPTFGQGTKLEIKRTVAAPSVFIFPPSDEQLKSGTASVVCLLNNFYPREAKVQWKVDNALQSGNSQESVTEQDSKDSTYSLSSTLTLSKADYEKHKVYACEVTHQGLSSPVTKSFNRGEC
